Measured values as given in paper PMC3873559.

Molecular target: human factor Xa (plasma-derived) (human)
Assay: kinetic titration of prothrombinase (thrombin generation read with a chromogenic substrate); apparent KD; limiting fXa (15 pM), fV/fVa species varied (30 pM to 10 nM; 0 to 15 nM by the legend of Fig. 4), PCPS vesicles 20 μM, DAPA 3 μM, prothrombin 1.4 μM, Spectrozyme-TH 0.4 mM; fitted to a one binding site model

Sequence of human factor Xa (plasma-derived) (human) (P00742 whole entry): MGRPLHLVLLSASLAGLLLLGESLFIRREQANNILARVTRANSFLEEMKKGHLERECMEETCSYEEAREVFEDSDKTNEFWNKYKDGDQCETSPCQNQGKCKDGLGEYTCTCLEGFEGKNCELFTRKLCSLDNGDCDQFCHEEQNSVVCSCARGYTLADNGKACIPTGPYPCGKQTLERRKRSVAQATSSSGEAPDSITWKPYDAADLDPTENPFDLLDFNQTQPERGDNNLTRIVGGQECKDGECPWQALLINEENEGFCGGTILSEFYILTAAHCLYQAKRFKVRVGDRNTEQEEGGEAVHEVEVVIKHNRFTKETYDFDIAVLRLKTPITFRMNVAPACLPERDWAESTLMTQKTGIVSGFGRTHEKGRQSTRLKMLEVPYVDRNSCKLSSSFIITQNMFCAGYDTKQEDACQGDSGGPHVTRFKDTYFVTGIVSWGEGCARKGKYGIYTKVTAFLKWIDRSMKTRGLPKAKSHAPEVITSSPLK

Row | Substance | Kd
1 | fVa purified from pooled fresh frozen normal plasma (fVa^plasma) (from UniProt P12259 29-737; P12259 1574-2224) (complex) | 510 pM
2 | recombinant human fV with Arg1018 and Arg1545 mutated to glutamine following incubation with thrombin (fVa^RQQ) (from UniProt P12259 29-737; P12259 738-2224) (complex) | 920 pM
3 | recombinant human fV with region 1000–1008 deleted and the thrombin activation cleavage sites (Arg709/Arg1018/Arg1545) mutated to glutamine (fV^ΔB9/Q3) (from UniProt P12259 29-2224) (natural protein) | 730 pM
4 | wild type recombinant human fV incubated with thrombin (fVa^WT) (from UniProt P12259 29-737; P12259 1574-2224) (complex) | 280 pM
